First the molecules themselves.
B1: Protein Rep68 (Adeno-associated virus 2 (isolate Srivastava/1982)), P03132 (parent)
chain: MPGFYEIVIKVPSDLDGHLPGISDSFVNWVAEKEWELPPDSDMDLNLIEQAPLTVAEKLQRDFLTEWRRVSKAPEALFFVQFEKGESYFHMHVLVETTGVKSMVLGRFLSQIREKLIQRIYRGIEPTLPNWFAVTKTRNGAGGGNKVVDECYIPNYLLPKTQPELQWAWTNMEQYLSACLNLTERKRLVAQHLTHVSQTQEQNKENQNPNSDAPVIRSKTSARYMELVGWLVDKGITSEKQWIQEDQASYISFNAASNSRSQIKAALDNAGKIMSLTKTAPDYLVGQQPVEDISSNRIYKILELNGYDPQYAASVFLGWATKKFGKRNTIWLFGPATTGKTNIAEAIAHTVPFYGCVNWTNENFPFNDCVDKMVIWWEEGKMTAKVVESAKAILGGSKVRVDQKCKSSAQIDPTPVIVTSNTNMCAVIDGNSTTFEHQQPLQDRMFKFELTRRLDHDFGKVTKQEVKDFFRWAKDHVVEVEHEFYVKKGGAKKRPAPSDADISEPKRVRESVAQPSTSDAEASINYADRLARGHSL
partner: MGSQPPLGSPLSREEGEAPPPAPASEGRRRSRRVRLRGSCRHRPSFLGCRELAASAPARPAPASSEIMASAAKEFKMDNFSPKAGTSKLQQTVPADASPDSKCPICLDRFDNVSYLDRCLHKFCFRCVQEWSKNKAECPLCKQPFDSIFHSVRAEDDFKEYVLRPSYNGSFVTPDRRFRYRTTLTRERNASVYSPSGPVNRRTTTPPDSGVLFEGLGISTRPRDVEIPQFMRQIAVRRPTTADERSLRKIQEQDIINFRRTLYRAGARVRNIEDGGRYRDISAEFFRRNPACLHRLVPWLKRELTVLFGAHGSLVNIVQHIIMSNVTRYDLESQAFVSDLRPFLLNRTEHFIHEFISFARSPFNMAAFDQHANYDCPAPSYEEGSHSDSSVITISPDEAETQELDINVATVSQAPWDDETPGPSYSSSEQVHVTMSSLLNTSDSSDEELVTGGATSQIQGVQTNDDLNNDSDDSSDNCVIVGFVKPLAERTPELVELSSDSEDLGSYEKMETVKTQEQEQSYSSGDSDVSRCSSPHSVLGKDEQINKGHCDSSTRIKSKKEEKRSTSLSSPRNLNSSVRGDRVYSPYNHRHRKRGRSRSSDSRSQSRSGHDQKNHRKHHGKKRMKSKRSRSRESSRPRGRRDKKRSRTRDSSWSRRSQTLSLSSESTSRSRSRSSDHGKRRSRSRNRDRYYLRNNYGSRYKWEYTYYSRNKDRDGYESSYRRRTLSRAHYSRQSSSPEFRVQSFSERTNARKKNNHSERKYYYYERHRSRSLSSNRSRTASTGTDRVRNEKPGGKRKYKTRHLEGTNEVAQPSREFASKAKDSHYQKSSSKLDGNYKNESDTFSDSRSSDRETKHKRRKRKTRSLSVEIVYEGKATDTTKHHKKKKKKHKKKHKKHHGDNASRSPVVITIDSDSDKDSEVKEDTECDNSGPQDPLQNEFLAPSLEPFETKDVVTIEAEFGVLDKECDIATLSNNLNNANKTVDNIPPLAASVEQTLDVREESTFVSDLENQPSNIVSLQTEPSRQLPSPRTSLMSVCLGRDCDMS

One variant from IntAct's records for PubMed 11842245 can be followed below.

In this assay the parent is B1. As to conditions: with toprs_human TOPORS.
In the case of MPGFYEIVIKVPSDLDGHLPGISDSFVNWVAEKEWELPPDSDMDLNLIEQAPLTVAEKLQRDFLTEWRRVSKAPEALFFVQFEKGESYFHMHVLVETTGVKSMVLGRFLSQIREKLIQRIYRGIEPTLPNWFAVTKTRNGAGGGNKVVDECYIPNYLLPKTQPELQWAWTNMEQYLSACLNLTERKRLVAQHLTHVSQTQEQNKENQNPNSDAPVIRSKTSARYMELVGWLVDKGITSEKQWIQEDQASYISFNAASNSRSQIKAALDNAGKIMSLTKTAPDYLVGQQPVEDISSNRIYKILELNGYDPQYAASVFLGWATKKFGKRNTIWLFGPATTGHTNIAEAIAHTVPFYGCVNWTNENFPFNDCVDKMVIWWEEGKMTAKVVESAKAILGGSKVRVDQKCKSSAQIDPTPVIVTSNTNMCAVIDGNSTTFEHQQPLQDRMFKFELTRRLDHDFGKVTKQEVKDFFRWAKDHVVEVEHEFYVKKGGAKKRPAPSDADISEPKRVRESVAQPSTSDAEASINYADRLARGHSL [K340H], the “effect of a mutation on the interaction” value is given as “increasing interaction”.
